Experiment [1] addresses PulD (Klebsiella pneumoniae HS11286) (UniProt P15644). The experiment is described as follows: cryo-EM structure; outer membrane complex of the co-expressed and co-purified Pul_CDELMNS complex on thin carbon film; focused refinement, C15 symmetry, 4.3 Å overall; PulC HR domain (7-8 Å) and PulS (~7 Å) as rigid-body fitted homology models; top views from a purification without glutaraldehyde.

The target of experiment [2] is T1, PulE with C-terminal StrepII tag (Klebsiella pneumoniae HS11286, UniProt A0A0H3GRZ5 1-497).
T1 construct: PulE ATPase of the Klebsiella pneumoniae HS11286 type II secretion system; N1E, N2E and CTE domains; also called PulE ATPase; GspE; source: E. coli C43 (DE3) with pspA knockout, co-expressed (from the pul operon in pASK3c, or full-length pulE alone in pASK3c); DDM-solubilised membranes; purified as part of a complex (StrepTrap, Flag resin); not shown: StrepII, C-terminal, kept
T1 sequence: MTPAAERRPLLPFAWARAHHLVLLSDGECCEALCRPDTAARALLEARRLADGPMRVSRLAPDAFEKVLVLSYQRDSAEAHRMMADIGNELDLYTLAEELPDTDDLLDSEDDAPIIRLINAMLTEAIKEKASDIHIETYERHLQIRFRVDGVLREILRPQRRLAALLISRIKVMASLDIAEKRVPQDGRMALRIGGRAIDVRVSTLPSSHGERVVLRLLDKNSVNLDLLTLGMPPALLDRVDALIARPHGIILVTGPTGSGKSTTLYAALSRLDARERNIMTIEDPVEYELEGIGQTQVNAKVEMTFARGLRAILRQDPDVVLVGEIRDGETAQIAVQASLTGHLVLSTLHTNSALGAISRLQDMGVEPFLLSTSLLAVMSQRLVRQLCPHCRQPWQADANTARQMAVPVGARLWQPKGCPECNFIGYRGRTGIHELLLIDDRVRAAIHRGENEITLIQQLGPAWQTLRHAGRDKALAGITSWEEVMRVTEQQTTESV
As to the kind of experiment: SDS-PAGE densitometry of the co-purified complex; Pul_CDELMNS co-expressed and co-purified without glutaraldehyde, phenol extracted; fluorescent emission of Coomassie R250 and Sypro Ruby stained gels; six independent purifications; ratios standardised around PulE. To be noted: both partners purified.

Experiment [3] addresses T2, PulE N1E domain (aa 1-108) with C-terminal StrepII tag (Klebsiella pneumoniae HS11286, UniProt A0A0H3GRZ5 1-108).
T2 construct: N1E domain of PulE, Klebsiella pneumoniae HS11286, aa 1-108; source: E. coli, co-expressed with Pul_(Lcyto) (pASK3c); not shown: StrepII, C-terminal, kept
T2 sequence: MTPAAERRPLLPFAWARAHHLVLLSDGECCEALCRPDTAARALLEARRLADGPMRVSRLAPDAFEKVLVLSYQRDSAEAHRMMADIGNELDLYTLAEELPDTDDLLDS
As to the kind of experiment: SDS-PAGE densitometry of the co-purified complex; Pul_(E-N1E/Lcyto) complex, two independent purifications, duplicate gels, Coomassie Blue R250 imaged at 680 nm. To be noted: both partners purified.

For orientation: stoichiometry N means a count of units in the complex or per binding partner. For “PulD (from UniProt P15644 28-660) (natural protein)”, the stoichiometry N in experiment [1] was found to be 15.

The molecule “PulS with C-terminal Flag tag (from UniProt P20440 18-125) (natural protein)” showed a stoichiometry N in experiment [1] of 1.

B1: PulM (natural protein)
chain: MANLLIWWRQRTPSEQRLLLGLTGLLAACAFWYGLWQPWRAREAQWRQTLVKEQASLRWMTEQAPRLQQLSQQPAPAAKEALTALVMREAASHGLTVIRLQPQGKRLQITLQPCAFQALIDWLDAPAMRGVNAISLSVTGQPSRPGWVTVNHLLLERDDEG
notes: PulM of the Klebsiella pneumoniae HS11286 type II secretion system; whole gene as part of the cloned operon; also called GspM; source: DDM-solubilised membranes; purified as part of a complex
In the case of B1, in experiment [2], the “stoichiometry N” value was 0.99 relative to PulE.

B2: PulL (natural protein)
chain: MNKINASPQAMLIVRLAAAQAPLHWQLFAPGEPHHEASGRWPTDDASPFPALAEQYPAWVLIPASDCAFHSLNLPAGLRKPPLQVAPFLLEEQLADDVEATHFALLHRQQAQCEIVAVQRQKMRDWLARCESLSLQPLALTPDVLALPWQPPAWSAVQVDEQWLIRHQPWGGMAAENVWLTELLQSEAEEHVIDSYSPPPAAPGVWREQPAQTLLTLAARHPAAQKLSLLQGEFAVRRRSAQASWRPARYAALALALLAGANSVLDHRDLARQAEAAQQASRAFYHRWFPTEKKVINPRLQMQQHLQTLTRQAQHAPLVDRLSALQNILSETPGIRLRALSWDAAGNRLQLDIAAVTSRALEQFTQRAQPRFRVRPGDMITKPDGIEGQLTLEENDG
notes: PulL of the Klebsiella pneumoniae HS11286 type II secretion system; bitopic inner membrane protein with a cytoplasmic domain (aa 1-235) and a periplasmic domain; a tag may have been present there; also called GspL; source: DDM-solubilised membranes; purified as part of a complex
Take B2: the “stoichiometry N” value in experiment [2] is 0.97 relative to PulE.

B3: PulN (natural protein)
chain: MKANWIAGGLLLVLYLLWLTATAPARLLAPMLPPGVQVGQFSGSVWRGAAQPVYWHGERLERLAWSLTLAGWQVSLSDPRGVMGQARLWGLRDLRLQEGRLTAPASLLSRWLMSTMPVKAAGEVTFSLTEGRFSDGRCRHIIAGGAQWRQARLHSPVGSLELAQVNGTFRCTVDGAVALTLRQDSHQLSLSGQGTLSPDGRYLFRGTLQPRQGMPPLLALLVTRPTANNAPGPTPWQLQGKWLPQEQK
notes: PulN of the Klebsiella pneumoniae HS11286 type II secretion system; whole gene as part of the cloned operon pulC to pulO; source: E. coli C43 (DE3) with pspA knockout, co-expressed from the pul operon (pASK3c); DDM-solubilised membranes; purified as part of the complex (StrepTrap, Flag resin)
Take B3: in experiment [2], the “stoichiometry N” value was 0.95 relative to PulE.

B4: PulC (natural protein)
chain: MPVSVMRLTNINKGIIKLLPQIVTLIILITAIPQLAKLTWRVVFPVSPEDISALPLTMPPAADPELKNVRPAFTLFGLAVKNSPTPTDAASLNQVPVSSLKLRLAGLLASSNPARSIAIIEKGNQQVSLSTGDPLPGYDARIAAILPDRIIVNYQGRKEAILLFNDSRAPSPPPTAAGNPPLVKRLREQPQNILTYLSISPVLSGDKLLGYRLNPGKDASLFRQSGLQANDLAIALNGIDLRDQEQAQQALQNLADMTEITLTVEREGQRHDIAFALGDE
notes: whole gene as part of the cloned operon pulC to pulO; has an N-terminus in the inner membrane, an HR domain and a PDZ domain; Only the HR domain (homology model) is fitted in the outer membrane complex map; also called GspC; source: E. coli C43 (DE3) with pspA knockout, co-expressed from the pul operon (pASK3c); DDM-solubilised membranes; purified as part of the complex (StrepTrap, Flag resin)
As for B4, the “stoichiometry N” value in experiment [2] was 2.13 relative to PulE.

B5: PulL cytoplasmic domain (aa 1-235) with C-terminal Flag tag (domain or fragment)
chain: MNKINASPQAMLIVRLAAAQAPLHWQLFAPGEPHHEASGRWPTDDASPFPALAEQYPAWVLIPASDCAFHSLNLPAGLRKPPLQVAPFLLEEQLADDVEATHFALLHRQQAQCEIVAVQRQKMRDWLARCESLSLQPLALTPDVLALPWQPPAWSAVQVDEQWLIRHQPWGGMAAENVWLTELLQSEAEEHVIDSYSPPPAAPGVWREQPAQTLLTLAARHPAAQKLSLLQGEFA
notes: cytoplasmic domain of PulL, Klebsiella pneumoniae HS11286, aa 1-235; source: E. coli, co-expressed (pCDF-duet); not shown: Flag, C-terminal, kept
On to B5, for which the “stoichiometry N” value in experiment [3] worked out at 1.

Source of the values: publication PMC6882859, “Core architecture of a bacterial type II secretion system” (Nature Communications, 2019).
